Test results published in patent publication US20220332844A1 (ORIONIS BIOSCIENCES, published 2022).

B1: 3PE12 (VHH)
VHH: QVQLQESGGGLVQPGGSLRLSCAASGSTFSGNAMAWYRQAPGKRRELVAGISGGGVTNYPDSVKGRFTISRDNAKNTVYLQMSSLKPEDTAVYYCNLWPPRVSPGGGVYWGQGTQVTVSS
B2: 3PE42 (VHH)
VHH: QVQLQESGGGLVQPGESLRLSCAVSGSTSSMNAMAWYRQAPGKRRELVAGISGGGATNYPDSVKGRFTISRDNAKNTVYLQMSSLKPEDTAVYYCNLWPPRASPGGGVYWGQGTQVTVSS
B3: 3PE57 (VHH)
VHH: QVQLQESGGGLVQPGGSLRLSCAASGSTFSVNAVAWYRQAPGKRRELVAGISGGGVTNYPDSVKGRFTISRDNAKNTVYLQMSSLKPEDTAVYYCNLWPPRASPDGRVYWGQGTQVTVSS
B4: 3PE93 (VHH)
VHH: QVQLQESGGGLVQPGESLRLSCAVSGSTSSMNAMAWYRQAPGKRRELVAGISGGGATNYPDSMKGRFTISRDNAKNTVYLQMSSLKPEDTAVYYCNLWPPRASPGGGVYWGQGTQVTVSS

Target: T1, mouse FAP on transiently transfected HEK293T cells (pMET7 FLAG-mFAP) (mouse, UniProt P97321 1-761)
T1 construct: whole, on cells; not shown: FLAG tag of the plasmid pMET7 FLAG-mFAP
T1 sequence (looked up): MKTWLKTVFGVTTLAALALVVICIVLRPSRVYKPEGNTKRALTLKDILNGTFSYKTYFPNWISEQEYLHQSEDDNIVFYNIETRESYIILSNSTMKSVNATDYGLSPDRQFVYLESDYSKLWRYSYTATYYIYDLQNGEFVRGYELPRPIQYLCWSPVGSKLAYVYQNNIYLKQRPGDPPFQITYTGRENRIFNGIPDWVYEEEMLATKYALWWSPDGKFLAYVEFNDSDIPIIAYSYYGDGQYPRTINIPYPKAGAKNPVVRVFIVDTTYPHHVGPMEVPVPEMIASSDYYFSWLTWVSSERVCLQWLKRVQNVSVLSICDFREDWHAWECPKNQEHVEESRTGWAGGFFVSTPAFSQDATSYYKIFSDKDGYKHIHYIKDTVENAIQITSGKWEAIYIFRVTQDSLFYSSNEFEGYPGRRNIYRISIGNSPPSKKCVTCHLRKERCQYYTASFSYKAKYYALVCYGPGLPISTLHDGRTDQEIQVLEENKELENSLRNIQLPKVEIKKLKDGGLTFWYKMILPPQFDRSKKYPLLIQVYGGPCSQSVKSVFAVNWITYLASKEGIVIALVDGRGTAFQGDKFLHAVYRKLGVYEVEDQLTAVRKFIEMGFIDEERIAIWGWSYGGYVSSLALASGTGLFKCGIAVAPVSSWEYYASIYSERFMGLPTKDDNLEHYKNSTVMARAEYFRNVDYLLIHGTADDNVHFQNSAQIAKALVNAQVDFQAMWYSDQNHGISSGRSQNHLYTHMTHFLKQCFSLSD
Assay: FACS, serial dilution of purified VHH on transfected HEK293T cells

Binding result, binds:
B1
B2
B3
B4
